Values quoted from earlier work, collected in US6440936B2, “Anti-protozoan methods and materials” (Xoma Corporation, priority 1994, dated 2002).

B1: BPI: protein isolated from the granules of mammalian polymorphonuclear neutrophils; human BPI approximately 55 kD (protein, UniProt P17213 32-487, looked up)
Bactericidal …: VNPGVVVRISQKGLDYASQQGTAALQKELKRIKIPDYSDSFKIKHLGKGHYSFYSMDIREFQLPSSQISMVPNVGLKFSISNANIKISGKWKAQKRFLKMSGNFDLSIEGMSISADLKLGSNPTSGKPTITCSSCSSHINSVHVHISKSKVGWLIQLFHKKIESALRNKMNSQVCEKVTNSVSSELQPYFQTLPVMTKIDSVAGINYGLVAPPATTAETLDVQMKGEFYSENHHNPPPFAPPVMEFPAAHDRMVYLGLSDYFFNTAGLVYQEAGVLKMTLRDDMIPKESKFRLTTKFFGTFLPEVAKKFPNMKIQIHVSASTPPHLSVQPTGLTFYPAVDVQAFAVLPNSSLASLFLIGMHTTGSMEVSAESNRLVGELKLDRLLLELKHSNIGPFPVELLQDIMNYIVPILVLPRVNEKLQKGFPLPTPARVQLYNVVLQPHQNFLLFGADVVYK

Legend:
T. gondii = settings: 0.25 μg/ml in cyst medium
[1] = test system: Staphylococcus aureus (four strains), Staphylococcus epidermidis, Streptococcus faecalis, Bacillus subtilis, Micrococcus lysodeikticus, Listeria monocylogenes; settings: 10^−6 M or 160 μg/ml; pH 7.0 or 5.5
[2] = test system: Candida albicans and Candida parapsilosis; settings: 10^−6 M; Ph 7.0 or 5.5
[3] = test system: human, rabbit and sheep red blood cells and several human tumor cell lines

Row | Molecule | anti-T. gondii effect (T. gondii) | toxic effect on gram-positive organisms [1] | toxic effect on fungi [2] | toxicity to higher eukaryotic cells [3]
1 | C[C@@H]1[C@H](O)[C@@H](C)/C=C/C=C/C=C/C=C/C=C/C=C/C=C/[C@H](O[C@@H]2O[C@H](C)[C@@H](O)[C@H](N)[C@@H]2O)C[C@@H]2O[C@](O)(C[C@@H](O)C[C@@H](O)[C@H](O)CC[C@@H](O)C[C@@H](O)CC(=O)O[C@H]1C)C[C@H](O)[C@H]2C(=O)O [Amphotericin B] | does not have a significant anti-T. gondii effect | – | – | –
2 | B1 | – | no toxic effect | no toxic effect | non-toxic
